{"source": "paper PMC8626469", "about": "(2021)", "binders": {"B1": {"name": "Helicobacter pylori holo-acyl carrier protein (natural protein)", "chain": "MALFEDIQAVIAEQLNVDAVQVTPEAEFVKDLGADSLDVVELIMALEEKFGVEIPDEQAEKIINVGDVVKYIEDNKLA", "modifications": "phosphopantetheine group (PPant) on Ser36"}}, "key": {"[1]": {"target": "T1, Helicobacter pylori FabX (H. pylori)", "T1 chain": "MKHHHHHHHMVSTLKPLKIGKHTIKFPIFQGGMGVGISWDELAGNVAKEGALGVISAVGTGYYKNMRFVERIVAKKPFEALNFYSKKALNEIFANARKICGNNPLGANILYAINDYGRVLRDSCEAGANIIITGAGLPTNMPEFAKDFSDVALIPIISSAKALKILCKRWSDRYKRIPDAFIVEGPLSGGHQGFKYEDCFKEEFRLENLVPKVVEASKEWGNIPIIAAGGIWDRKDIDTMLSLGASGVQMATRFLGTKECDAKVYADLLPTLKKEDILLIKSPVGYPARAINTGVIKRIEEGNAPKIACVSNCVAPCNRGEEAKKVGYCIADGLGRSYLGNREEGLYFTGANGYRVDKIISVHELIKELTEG", "assay": "ITC"}, "[2]": {"target": "Helicobacter pylori FabX R164A (H. pylori)", "assay": "ITC"}}}
{"binder": "B1", "values": [{"measurement": "Kd", "setting": "[1]", "value": 1.64, "unit": "µM"}, {"measurement": "Kd", "setting": "[2]", "value": "> 200", "unit": "µM"}]}
